Values of other authors, collected in patent US12420014B2, “Dosing of incretin pathway drugs” (Closed Loop Medicine Ltd., priority 2023, dated 2025).

Columns and labels:
[1] = for a given plasma level; FIG. 2B [2]
[2] = all adverse effects, nausea, vomiting; FIG. 13 [1]
[3] = subcutaneous administration, patient study data
[4] = PK studies

## semaglutide
[1]
  HbA1c reduction at high starting HbA1c (>8.7%) relative to lower starting levels (<7.4%): 3 fold
[2]
  plasma level below which side effects reduce: less than 50 nmol/L
[3]
  higher clearance observed in patients with Type 2 diabetes: 12%
[4]
  dependence of plasma concentration on other co-medications: do not show a significant dependence
